From US20090246756A1, “Thermostable polypeptide having polynucleotide kinase activity and/or phosphatase activity” (Prokaria Ehe, priority 2004, published 2009)
Values joined by “and” are separate entries in the source; they are usually repeats but may differ in a detail not shown here. Equal entries are not always repeated. “Also recorded” adds a separate entry of the source.

How the values were obtained:
[1] = tested on: partial mircococcal nuclease digested calf thymus DNA or DNA/RNA oligomers; experiment: 5′ kinase standard PNK assay (conversion of γ-32P-ATP); assay type: biochemical; settings: for increase in 5′ kinase activity by PEG6000: 5-10% PEG6000; for 5′ kinase activity with Mn^2+ compared to Mg^2+: divalent cation essential
Description: The 5′-kinase activity may be determined by an appropriate assay such as an assay developed for T4 PNK that measures conversion of ATP labelled with radioactive gamma-phosphate group (Richardson, C. C. (1965) Proc Natl Acad Sci U.S.A. 54, 158-165). The standard assay may be modified according to the requirement of a specific PNK. For example, for RM378 PNK the typical reaction conditions are 50 mM MOPS buffer pH 8.5, 1 mM DTT, 10 mM MgCl2, 25 μg/ml BSA, 1 mM spermidine and 5% PEG6000, 100 μM ATP (mixture of normal and γ-32P-ATP) and 0.5 mg/ml partial micrococcal nuclease digested calf thymus DNA or 50-100 μM DNA/RNA oligomers, and 0.0001-0.001 mg/ml PNK enzyme. The reaction mixture is then incubated at 70° C. for 15-30 minutes.
(§1) The standard PNK assay developed by Richardsson (Richardson, C. C. (1965) Proc Natl Acad Sci USA 54, 158-165) that measures conversion of γ-32P-ATP, was used for characterization of the RM378 PNK with some minor modifications. Standard reaction conditions were: 50 mM MOPS buffer pH 8.5, 1 mM DTT, 10 mM MgCl2, 25 μg/ml BSA, 1 mM spermidine and 5% PEG6000, 100 μM ATP (mixture of normal and γ-32P-ATP) and 0.5 mg/ml partial mircococcal nuclease digested calf thymus DNA or 50-100 μM DNA/RNA oligomers, and 0.0001-0.001 mg/ml PNK enzyme, incubated at 70° C. for 15-30 minutes.

[2] = tested on: d(A15)—PO4^− oligomer; experiment: 3′ phosphohydrolase comparison of RM378 and T4 PNK on 3′ phosphorylated oligomer; assay type: biochemical; settings: 0.1 mM substrate, 20 units enzyme, pH 6, 2 hours, 37° C. (T4) / 70° C. (RM378)
Description: (§4) Comparison was done between RM378 and T4 PNK using CAMP, 3′TMP and d(A15)—PO4^− oligomer as substrates, all in 0.1 mM concentration with 20 units of the enzymes in 20 μL reaction volumes using potassium acetate buffer pH 6 with both Mg^2+ and Mn^2+ as the divalent cation. The reactions were carried out for 2 hours at 37° C. and 70° C. for T4 and RM378 PNK, respectively.

[3] = tested on: r(A20); experiment: 5′ kinase reaction, RNA oligomer titration and labelling; assay type: biochemical
Description: as §1
(§2) Titration curves for ATP, r(A20) and single stranded d(A20) oligomers were done to calculate Km values and find the maximum velocity of the 5′ kinase reaction. The results are shown for ATP in FIG. 4B and for, r(A20) and d(A20) in FIGS. 4C.
(§3) To investigate the completeness of the 5′ kinase reaction, both r(A20) and d(A20) oligos at 20 μM concentration were labeled in a 10 μM ^32P labeled ATP mixture under optimal conditions. […] The RM378 PNK is therefore an excellent enzyme for nucleic acid labeling at elevated temperatures.

[4] = 5′ kinase reaction, ATP titration; assay type: biochemical; settings: Lineweaver-Burk plot
Description: as §1, §2

[5] = 3′ phosphohydrolase assay (phosphate release, Biomol Green) on 3′TMP; assay type: biochemical
Description: (§5) For example, the following assay can be used: in a potassium acetate buffer, pH 6.0, with 5 mM MnCl2, 1 mM DTT, and 10 mM KCl2, the enzyme is incubated (at 0.05 mg enzyme/ml) with substrate, such as 0.1-5 mM 3′-thymidine mono-phosphate (3′-TMP) or cyclic 2′-3′cyclic adenosine mono-phosphate (cAMP), for 30-60 minutes at suitable temperature, for example at 70-75° C. for RM378 kinase. The reaction is then quenched by adding 90 μL of Biomol Green reagent (Biomol Research Laboratories, Plymouth Meeting, Pa.) to 10 μL reaction. The release of phosphate is then measured at A 620 nm in a spectrophotometer and compared to a phosphate standard curve.
(§6) After determination of pH, cation and apparent temperature optimum, the standard phosphohydrolase assay was: Potassium acetate buffer pH 6.0, 5 mM MnCl2, 1 mM DTT, 10 mM KCl2, 0.1-5 mM CAMP and 0.05 mg/ml PNK. Reaction time was 30-60 minutes at 70-75° C. The reaction was quenched by adding 90 μL of Biomol Green reagent (Biomol Research Laboratories, Plymouth Meeting, Pa.) to 10 μL reaction. The release of phosphate was measured at A 620 nm in a Sunrise Absorbance Reader (Tecan Group Ltd, Maennedorf, Switzerland) and compare to a phosphate standard curve.
(§7) The characterization of the phosphohydrolase activity was done using two substrates: 3′-thymidine mono-phosphate (3′TMP) and cyclic 2′-3′cyclic adenosine mono-phosphate (cAMP). Determination of pH optimum was done with MOPS and potassium acetate buffers using 0.1 mM CAMP and 0.05 mg/ml PNK, apparent T optimum was also done under the standard condition by assaying at different temperatures. Protein concentration curve was done with CAMP at pH 6 in K-acetate buffer and different amount of PNK. Substrate concentration curves were done for CAMP and 3′TMP, under the standard conditions using different amount of substrates.
Comparison was done between RM378 and T4 PNK using CAMP, 3′TMP and d(A15)—PO4^− oligomer as substrates, all in 0.1 mM concentration with 20 units of the enzymes in 20 μL reaction volumes using potassium acetate buffer pH 6 with both Mg^2+ and Mn^2+ as the divalent cation. […]

[6] = tested on: ssDNA oligomer; experiment: Effect of ADP on 5′ kinase, dephosphorylation and phosphate exchange reactions; assay type: biochemical; settings: for effect of ADP on 5′ kinase activity: 5′ hydroxylated ssDNA, increasing ADP; for phosphate exchange reaction on 5′ phosphorylated oligomer: independent of ADP concentration, 0 to 1 mM ADP; for effect of ADP on dephosphorylation of 5′ phosphorylated ssDNA: only ADP and 32P-labeled oligomer, no ATP
Description: Effect of ADP was tested on three kind of reactions i) exchange reaction ii) 5′ kinase reaction and iii) dephosphosphorylation. This was done, by titrating different amounts of ADP to reaction mixtures containing i) 10 μM phosphorylated ssDNA oligo 10 μM γ-^32P-ATP, ii) 10 μM 5′ hydroxylated ssDNA oligomer with 10 μM γ-^32P-ATP, and iii) with 5′ ^32P-labeled ssDNA oligomer without ATP.
The effect of addition of ADP to 5′ kinase activity, dephosphorylation, and phosphate exchange was studied in controlled assay with 10:10 μM ATP and oligomer and by titrating the ADP concentration. […] On the other hand, when labelling an already phosphorylated oligomer, the exchange reaction was overall about 5-8% independent of the ADP concentration, from 0 to 1 mM ADP.

[7] = 3′ phosphohydrolase assay (phosphate release, Biomol Green) on CAMP; settings: for 3′ phosphohydrolase activity on CAMP, enzyme comparison: 20 units enzyme, pH 6, 2 hours, 37° C. (T4) / 70° C. (RM378)
Description: as §5, §6, §7, §4

[8] = tested on: partial mircococcal nuclease digested calf thymus DNA or DNA/RNA oligomers; experiment: 5′ kinase standard PNK assay (conversion of γ-32P-ATP); assay type: biochemical; settings: standard assay at different temperatures for one hour
[9] = tested on: d(A20); experiment: 5′ kinase reaction, ssDNA oligomer titration and labelling; assay type: biochemical
Description: as §1, §2, §3

B1: RM378 PNK: novel thermostable polynucleotide kinase (5′-kinase and 3′-phosphatase activity) from the thermophilic bacteriophage RM378, SEQ ID NO: 2 (protein)
chain: MPNFITNIRNSRFKEVLTEMYHCHHESEYHLEGNVLNHTLMVLQVVDKITADHREQTNLSLTALLHDSGKPYTRVVERGRVMFPGHEGVSTYIAPLLLCEVLRDSLITPKDAIQILYGVNYHMLHWKNPNLFMRLFTEMVNYTCLYNFLKKFNQCDLKGRVSTKPQKQEFPVIHYFENTPIGTVERHVYFMIGVPGSGKSTFLQKVGEGAIVSRDEIMMEYAAEIGITGDYNTVFREIHNNPMHKTKVNNRYMNAFRKAVEENEKVFVDATNMSYKSRRRFYNALRRDIAETVGYHYIVMLPDYFTCIERAENREGKSISREVVTDIARSLLLPCREHPNSIDTTIYMSDGHDEHVLRVAW
modifications: Bacteriophage RM378; HDmotif (66)..(67) HD motif is characteristic of HD phophohydrolase family of enzymes
Question: Which results are given for B1?
Answer: effect of spermidine on 5′ kinase activity [1]: limited; increase in 5′ kinase activity by PEG6000 [1]: multi-fold; increase in 5′ kinase activity by PEG6000 ([1]; listed as PNK): 3-4 fold and 4 fold; Mg^2+ concentration at which maximum 5′ kinase activity was reached ([1]; Mg^2+): 100 µM; Mn^2+ concentration at which maximum 5′ kinase activity was reached ([1]; Mn^2+): 10 µM; effect of Mn^2+ concentration over 100 μM on 5′ kinase reaction ([1]; Mn^2+ over 100 μM): severely inhibited the reaction; effect of PEG6000 at higher concentrations on 5′ kinase reaction ([1]; PEG6000 above 5-10%): inhibited the 5′ kinase reaction at higher concentrations; effect of NaCl and KCl on PNK activity ([1]; concentrations higher than 10 mM): steady decrease in activity; 5′ kinase activity with Mn^2+ compared to Mg^2+ [1]: both Mg2+ and Mn2+ work equally well; 5′ kinase activity with Mn^2+ compared to Mg^2+ ([1]; listed as PNK): Activity was similar for Mn^2+ and Mg^2+; 3′ phosphohydrolase activity on d(A15)-3′PO4− oligomer, enzyme comparison [2]: no detectable activity on the oligomer; 3′ phosphohydrolase activity on d(A15)-3′PO4− oligomer, enzyme comparison ([2]; listed as RM378): no activity on the oligomer; completeness of 5′ kinase labelling reaction, RNA ([3]; 20 μM r(A20), 10 μM 32P-labeled ATP, 70° C., 30 min): the ATP was depleted; also recorded: completely depleted the ATP when using 5 U per reaction; Vmax of 5′ kinase reaction on r(A20) ([3]; Example 2): 160 μmolmg^−1h^−1; Vmax of 5′ kinase activity on RNA ([3]; FIG. 6C legend): 220 µmol/h/mg; Km ([3]; r(A20)): ~1.5 µM and 1.3 µM; Km [4]: 20 µM; 3′ phosphohydrolase activity on 3′TMP, enzyme comparison ([5]; 0.1 mM substrate, 20 units enzyme, pH 6, 2 hours, 37° C. (T4) / 70° C. (RM378)): some activity on 3′TMP; Vmax of 3′ phosphohydrolase reaction on 3′TMP ([5]; standard conditions, Mn2+): 1.5 μmolmg^−1h^−1; Km ([5]; standard conditions, Mn2+, read-out: Km for 3TMP, 3′ phosphohydrolase reaction): 60 µM; effect of ADP on 5′ kinase activity [6]: inhibited as the concentration of ADP increased; effect of ADP on 5′ kinase activity ([6]; listed as PNK): decreased with increasing ADP concentration; ADP concentration giving complete inhibition of 5′ kinase activity ([6]; 10:10 μM ATP and oligomer): 50 µM; phosphate exchange reaction on 5′ phosphorylated oligomer [6]: 3-8%; phosphate exchange reaction on 5′ phosphorylated oligomer ([6]; listed as PNK): 5-8%; effect of ADP on dephosphorylation of 5′ phosphorylated ssDNA [6]: The dephosphorylation increased as the ADP concentration increased; effect of ADP on dephosphorylation of 5′ phosphorylated ssDNA ([6]; listed as PNK): the level of dephosphorylation increased as the ADP concentration was increased; pH range with >40% 3′ phosphohydrolase activity [7]: 5.5-7.0 pH; temperature range with good (>50%) 3′ phosphohydrolase activity [7]: 65-80 °C; 3′ phosphohydrolase activity on CAMP, enzyme comparison ([7]; 0.1 mM substrate): much better activity on the CAMP versus 3′-TMP; 3′ phosphohydrolase activity on CAMP, enzyme comparison ([7]; 0.1 mM substrate, listed as RM378): high activity on CAMP; higher 3′ phosphohydrolase activity with Mn^2+ than Mg^2+ ([7]; CAMP as substrate, 1 mM cation): 5-10 fold; 3′ phosphohydrolase activity in presence of Mg2+, enzyme comparison ([7]; Mg2+ as cation, 0.1 mM substrate): little activity in presence of Mg2+; apparent temperature optimum of 3′ phosphohydrolase activity ([7]; measured for one hour): 75 °C; pH optimum of 3′ phosphohydrolase activity ([7]; potassium acetate pH 4-6 and MOPS pH 6-9, 0.1 mM CAMP, 0.05 mg/ml PNK): ~6 pH; Km ([7]; read-out: Km for CAMP, 3′ phosphohydrolase reaction, standard conditions, Mn2+): 700 µM; Vmax of 3′ phosphohydrolase reaction on CAMP ([7]; standard conditions, Mn2+): 13.5 μmolmg^−1h^−1; 3′ phosphohydrolase activity on CAMP relative to 3′TMP ([7]; substrate titration, standard assay conditions with Mn2+): much more phosphohydrolase activity on CAMP compared to 3′TMP; also recorded: several-fold higher on CAMP than 3′TMP; apparent temperature optimum of 5′ kinase activity [8]: 65-70 °C; completeness of 5′ kinase labelling reaction, DNA ([9]; 20 μM d(A20), 10 μM 32P-labeled ATP, 70° C., 30 min): the ATP was depleted; also recorded: completely depleted the ATP when using 5 U per reaction; Vmax of 5′ kinase reaction on d(A20) ([9]; Example 2): 220 μmolmg^−1h^−1; Vmax of 5′ kinase activity on DNA ([9]; FIG. 6C legend): 160 µmol/h/mg; 5′ kinase activity on ssDNA compared to RNA ([9]; d(A20) versus r(A20)): somewhat better activity on ssDNA when compared to RNA; Km ([9]; single stranded d(A20), read-out: Km for DNA, 5′ kinase reaction): ~1.3 µM and 1.5 µM
